Measurements published in patent US7612188.

Biological target: tissue factor (Innovin, Dade) (UniProt P13726)
Chain of UniProt P13726 (P13726 33-295): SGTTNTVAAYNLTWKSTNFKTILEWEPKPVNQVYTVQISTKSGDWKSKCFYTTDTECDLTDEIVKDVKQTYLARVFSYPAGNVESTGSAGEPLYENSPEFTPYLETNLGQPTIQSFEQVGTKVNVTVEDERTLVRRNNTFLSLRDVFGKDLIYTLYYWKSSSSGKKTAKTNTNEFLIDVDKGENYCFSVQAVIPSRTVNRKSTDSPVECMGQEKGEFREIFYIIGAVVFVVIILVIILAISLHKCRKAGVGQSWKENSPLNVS

Substance	competition clotting assay with FFR-VIIa (0 to 3.5 nM) and Innovin, compared with VIIa-Q11E33	competition clotting assay with active site modified VIIa (0-3.2 nM), compared with the Q11E33 mutant
Human factor VIIa-T9Q11E33	Human factor VIIa-T9Q11E33 exhibited a severe loss of competitive binding affinity	–
factor VII with leucine for phenylalanine at position 5 and the Q11E33 mutations	–	had much lower activity than the Q11E33 mutant
